Here are results for three molecules from patent publication US8765126B2, “Methods of treating complications and disorders associated with G-CSF administration” (priority 2011, dated 2014).

“Also recorded” adds a separate entry of the source. Read-outs that look alike come from different tables or passages of the source.

Data set [1] has as its system membrane MPO. In words: Flow cytometry of cell surface (membrane) MPO expression on myeloid cells. In kind it is cell-based, human. As to the method: (§1) Flow cytometry. Cell surface expression of E-selectin ligands and MPO was determined by indirect single-color immunostaining with HECA-452 and anti-MPO (2C7) mAbs, respectively. Cells were incubated with primary antibodies and their matched isotype controls in PBS with 2% FBS for 20 min, on ice. After successive washes with PBS and 2% FBS cells were stained with FITC-conjugated secondary antibody for HECA-452 and PE-conjugated secondary antibody for MPO. Stained cells were then washed, resuspended in PBS, and analyzed using the Cytomics FC 500 MPL flow cytometer (Beckman Coulter, Miami, Fla.).
(§2) In vitro G-CSF treatment. Myeloid cells (10^6 cells/ml), isolated from different sources were cultured with RPMI 1640 medium (Mediatech, Inc, Manassas, Va.) with 10% FBS, 1% pen/strep and 10 ng/ml recombinant human G-CSF (Neupogen) from Amgen Mfg. Ltd., CA. Cells were maintained in culture for 72 h, at 37° C. and G-CSF aliquots were added after each 24 h period.
(§3) Neuraminidase and DMJ treatment. Cells were isolated from the buffy coat of bone marrow aspirates after centrifugal sedimentation and red blood cell lysis. […] After extensive washes, cells were divided in equal numbers and cultured in RPMI 1640 medium, for 48 h, with or without G-CSF treatment. In parallel, a subset of cells cultured with G-CSF was treated with 1 mM deoxymannojirimycin (DMJ). The effect(s) of G-CSF and DMJ were assessed by flow cytometry analysis of surface expression of HECA-452 determinants and of MPO.
(In general: Flow cytometry measures light scatter and fluorescence of single cells or particles in a stream.)

In data set [2] the test system is HECA-452-reactive glycans. Nature of the data set: Flow cytometry of cell surface HECA-452-reactive sialofucosylated glycans on myeloid cells. In kind it is cell-based, human. As to the method:
as §1, §2, §3

Data set [3] has as its system TNF-α-stimulated HUVEC.
The test system of data set [4] is surface MPO. In words: Detection of membrane MPO activity (surface biotinylation, streptavidin beads, OPD substrate). The class given is cell-based, human. As to the method:
Detection of membrane MPO activity. Aliquots of NL and ML were surface biotinylated, lyesed and membrane proteins were precipitated with streptavidin-conjugated agarose beads. The beads were incubated with a chromogenic peroxidase substrate, o-Phenylenediamine dihydrochloride (OPD) (Sigma) and the activity of surface MPO was monitored spectrophotometrically.

In data set [5] the test system is mice with surgically-induced myocardial infarct. In words: Surgically induced myocardial infarct, echocardiographic ejection fraction. In kind it is in vivo. As to conditions: 7 days post-MI, mice injected with neuraminidase-treated ML vs untreated ML. The text has this: Adult RAG-2/JAK-3 SCID mice were maintained on a standard mouse chow diet and water ad libitum, and housed in a temperature-controlled environment under an alternating 12-hour light/dark cycle. All animal handling procedures adhered strictly to the approved guidelines of the Institutional Animal Care and Use Committee. Mice paired by weight and sex were distributed in two groups: in one group experimental MI was induced by permanent left anterior descending artery (LAD) ligation, as previously described^67 and another group that underwent open thoracotomy without coronary ligation (sham operated). Within five hours following the surgery, mice from each group were injected via jugular vein either with PBS or different cell types: NL, ML or sialidase-treated ML (4×10^6 cells/mouse). The surgeon who performed the MI procedure and the jugular vein perfusions was blinded to the type of cells/[…] injected in each animal. Echocardiography was performed on all mice before surgery (baseline), at 3 days and 7 days following surgery using an 18 to 38 MHz linear-array transducer with a digital ultrasound system (Vevo 2100 Imaging System, VisualSonics, Toronto, Canada). Standard parasternal long- and short-axis views were obtained during each echocardiographic examination and image measurements were performed offline by an investigator blinded to animal groups and the cell types/PBS injections.

The conditions of data set [6]: patients receiving G-CSF; cited from earlier work.
Data set [7] deals with MPO-EL. In words: MPO immunoprecipitation and western blot with E-selectin-Ig chimera / anti-MPO 3D3. The class given is cell-based, human. As for the experimental part:
G-CSF induces MPO-EL expression in myeloid cells in vitro. To directly assess whether G-CSF stimulates expression of MPO-EL, freshly obtained BM, NL and ML were placed in culture and treated for 48 hours with human G-CSF at 10 ng/ml, a dose reflecting physiologic concentrations of G-CSF following in vivo administration^21,37. MPO was immunoprecipitated from equivalent cell numbers of BM, NL and ML, then resolved on SDS-PAGE and blotted with an anti-MPO Ab which predominantly recognizes the heavy chain (clone 3D3) (FIG. 4d); blots were then stripped and stained with E-Ig (FIG. 4e).
Immunoprecipitations, SDS-PAGE and Western Blotting. Leukocytes were lysed in Buffer A (0.5 mM Tris, pH=8, 150 mM NaCl, 20 μg/ml PMSF, 0.02% sodium azide) supplemented with 1% Triton (Sigma-Aldrich, St. Louis, Mo.) and protease inhibitor cocktail (Roche Diagnostics GmbH, Mannheim, Germany). Cell lysates were precleared with rProtein G Agarose beads (Invitrogen, Carlsbad, Calif.). Immunoprecipitations were performed at 4° C. for 16 h, by incubating the precleared lysates with 2 μg antibody and a fresh batch of agarose beads blocked in advance with 1 mg/ml bovine serum albumin (Sigma-Aldrich, St. Louis, Mo.). After extensive washes, the beads were boiled with sample buffer and the released antigens or cell lysates were resolved on 7.5% Tris-HCl SDS-PAGE (Criterion™ Precast Gel, Bio-Rad Laboratories, Hercules, Calif.). In western blot experiments separated proteins were transferred to Sequi-Blot™PVDF Membrane (Bio-Rad Laboratories, Hercules, Calif.) which was blocked for 2 h with a solution of 5% Non-Fat Milk (LabScientific, Livingston, N.J.). Proteins were detected with E-selectin-Ig chimera or with anti-MPO mAb: clone 2C7 (Abcam) and clone 3D3 (a generous gift from Carrie Rice at Maine Biotechnology Services, ME). Secondary antibodies goat anti-human IgG and goat anti-mouse IgG, HRP-conjugated were detected with Lumi-Light Western Blotting Substrate, (Roche Diagnostics GmbH, Mannheim, Germany).
In vitro G-CSF treatment. […]

Consider `OC[C@H]1NC[C@@H](O)[C@@H](O)[C@@H]1O` [DMJ, deoxymannojirimycin, reference compound], for which, in data set [1] (NA-treated BM cells, G-CSF in presence of 1 mM DMJ, 48 h), the “G-CSF-induced MPO expression” value is “significantly attenuated”. Also, the “G-CSF-induced expression of HECA-452-reactive glycans” value in data set [2] (NA-treated BM cells cultured 48 h with G-CSF in presence of 1 mM DMJ) is recorded as “markedly diminished”. Besides, the G-CSF-induced angiotoxicity entry in data set [3] (NL treated with G-CSF and DMJ together) is “prevented G-CSF-induced angiotoxicity”. For the same molecule, the “induction of surface enzymatic activity” value in data set [4] (DMJ added to G-CSF-treated NL) was “prevented induction of surface enzymatic activity”.

In the case of “sialidase: Vibrio Cholerae neuraminidase used to cleave terminal sialic acid from sLex [reference compound]”, in data set [5], the ejection fraction result is reported as “improved ejection fraction”. In addition, the MPO expression entry in data set [1] (BM cells treated with NA, cultured 48 h) is “did not induce MPO expression”. In addition, the endothelial cell death result in data set [3] (TNF-α-stimulated HUVEC in absence of leukocytes (baseline)) is “no effect”; in data set [3] (co-culture with sialidase-treated ML compared to untreated ML), “significantly decreased”.

B1: Granulocyte colony-stimulating factor (protein, chains of the INN, looked up)
chain: MTPLGPASSLPQSFLLKCLEQVRKIQGDGAALQEKLCATYKLCHPEELVLLGHSLGIPWAPLSSCPSQALQLAGCLSQLHSGLFLYQGLLQALEGISPELGPTLDTLQLDVADFATTIWQQMEELGMAPALQPTQGAMPAFASAFQRRAGGVLVASHLQSFLEVSYRVLRHLAQP
Take B1: in data set [6], the “cutaneous leukocytoclastic vasculitis, patients affected” value is recorded as at most 6%. For the same molecule, the MPO-EL expression result in data set [7] (BM and NL, 10 ng/ml G-CSF, 48 hours) was “markedly induces”; in data set [7] (ML, ex vivo exposure to G-CSF) it was “did not further increase”. In addition, the MPO quantity entry in data set [7] (BM and NL, 10 ng/ml G-CSF, 48 hours, anti-MPO 3D3 blot) is given as “without significant increase”. Moreover, the MPO membrane expression result in data set [1] (ML treated ex vivo with G-CSF) was “only modestly increased”. Further, in data set [1] (NL and BM cells treated ex vivo with G-CSF), the “expression of surface MPO” value is recorded as “dramatically increased”. Further, the HECA452-reactive glycans entry in data set [2] (ML treated ex vivo with G-CSF) is reported as “only modest increases”; in data set [2] (NL and BM treated ex vivo with G-CSF), “significant increase”. Further, in data set [2] (NA-treated BM cells incubated with G-CSF vs without G-CSF, 48 h), the “expression of HECA-452 determinants” value is recorded as “marked increased expression”. The angiotoxicity result in data set [3] (G-CSF-treated ML compared to untreated ML) is on record as “no significant increase in angiotoxicity”. For the same molecule, the “endothelial cell death (cytotoxic effect)” value in data set [3] (G-CSF-treated NL or BM compared to untreated NL or BM cells) is recorded as “enhanced cytotoxic effect; also recorded: markedly increased”. Further, in data set [4] (NL cultured with 10 ng/ml G-CSF for 48 hours), the “cell surface MPO enzymatic (peroxidase) activity” value is reported as “induced surface peroxidase activity”.
